# From US20190233517A1
# Legend:
# Settings in all cases: remark: other sources report otherwise
# HER3, P21860 [1] = test: kinetic binding data, method not stated
# HER3, P21860 [2] = test: kinetic binding data, method not stated; remark: listed apart in the source
# Her3-his, P21860 = test: SPR
binder,measurement,setting,value
"Her3 antibody patritumab (antibody, V domains shown) VH: QVQLQQWGAGLLKPSETLSLTCAVYGGSFSGYYWSWIRQPPGKGLEWIGEINHSGSTNYNPSLKSRVTISVETSKNQFSLKLSSVTAADTAVYYCARDKWTWYFDLWGRGTLVTVSS VL: not shown",Kd,"HER3, P21860 [1]",0.9 nM
same,Kd,"HER3, P21860 [2]",0.0302 nM
same,Kd,"Her3-his, P21860",1.28 nM
